Patent publication US20250115668A1 (BIOCYTOGEN PHARMACEUTICALS BEIJING, published 2025)
Read-outs that look alike come from different tables or passages of the source.

T1: Human OX40 protein having a His-Tag (human, UniProt P43489 29-216, limits assumed)
T1 construct: Bought recombinant protein; also called hOX40-His; hOX40; not shown: His tag
T1 sequence (looked up): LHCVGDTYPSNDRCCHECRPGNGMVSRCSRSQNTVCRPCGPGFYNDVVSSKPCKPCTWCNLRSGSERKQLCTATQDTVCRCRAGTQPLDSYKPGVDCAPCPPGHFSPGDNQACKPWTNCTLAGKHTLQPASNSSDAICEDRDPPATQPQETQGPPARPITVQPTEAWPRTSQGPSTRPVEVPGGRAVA

T2: human OX40 expressed on transfected cells (human, UniProt P43489 29-277)
T2 construct: whole, on cells; also called hOX40 on HEK293T-hCTLA4-hOX40 cells; on Jurkat-luc-hOX40
T2 sequence (looked up): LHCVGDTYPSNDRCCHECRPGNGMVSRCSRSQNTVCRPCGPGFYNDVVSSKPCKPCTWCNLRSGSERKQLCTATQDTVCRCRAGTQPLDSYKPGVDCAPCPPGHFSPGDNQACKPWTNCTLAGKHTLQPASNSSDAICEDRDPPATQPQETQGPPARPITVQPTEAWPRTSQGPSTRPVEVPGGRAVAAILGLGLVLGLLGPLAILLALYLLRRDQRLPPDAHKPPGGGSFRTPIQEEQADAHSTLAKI

T3: human CTLA4 expressed on transfected cells (human, UniProt P16410 36-223)
T3 construct: whole, on cells; also called hCTLA4 on HEK293T-hCTLA4-hOX40 cells; on Jurkat-luc-hCTLA4
T3 sequence (looked up): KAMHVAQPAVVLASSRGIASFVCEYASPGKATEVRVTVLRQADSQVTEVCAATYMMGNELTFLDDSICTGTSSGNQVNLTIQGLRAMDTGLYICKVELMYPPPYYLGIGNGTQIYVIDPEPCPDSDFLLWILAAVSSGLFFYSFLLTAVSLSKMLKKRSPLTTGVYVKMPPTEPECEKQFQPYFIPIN

T4: Human CTLA4 protein having a His-Tag (human, UniProt P16410 37-162, limits assumed)
T4 construct: Bought recombinant protein; also called hCTLA4-His; hCTLA4; not shown: His tag
T4 sequence (looked up): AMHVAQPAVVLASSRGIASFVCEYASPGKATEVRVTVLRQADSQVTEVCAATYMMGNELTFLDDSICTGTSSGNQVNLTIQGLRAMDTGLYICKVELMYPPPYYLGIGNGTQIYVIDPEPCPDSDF


Assays:
[1] = biological target: T1, Human OX40 protein having a His-Tag; test: SPR Biacore 8K, Protein A chip; antibody captured, antigen analyte
[2] = biological target: T2, human OX40 expressed on transfected …; test: flow cytometry (MFI, anti-hIgG-Fc-Alexa Fluor 647) on HEK293T-hCTLA4-hOX40 cells co-expressing human CTLA4 and human OX40
[3] = biological target: T1, Human OX40 protein having a His-Tag; test: SPR Biacore 8K, Protein A chip; antibody captured, antigen analyte; remark: listed apart in the source
[4] = biological target: T5, Cynomolgus/Rhesus macaque OX40/TNFRSF4/CD134 Protein, His Tag (Cynomolgus/Rhesus macaque); test: as above
T5 construct: Bought recombinant protein; also called fasOX40-His; monkey OX40

[5] = biological target: T2, human OX40 expressed on transfected …; test: flow cytometry (MFI, anti-hIgG-Fc-Alexa Fluor 647) on HEK293T-hCTLA4-hOX40 cells co-expressing human CTLA4 and human OX40; the bispecific can bind both antigens on the same cell, signal not separable by target
[6] = biological target: T3, human CTLA4 expressed on transfected …; test: as above
[7] = biological target: T4, Human CTLA4 protein having a His-Tag; test: SPR Biacore 8K, Protein A chip; antibody captured, antigen analyte
[8] = biological target: T4, Human CTLA4 protein having a His-Tag; test: as above; remark: listed apart in the source
[9] = biological target: T6, Cynomolgus/Rhesus macaque CTLA-4 Protein, His Tag (Cynomolgus/Rhesus macaque); test: as above
T6 construct: Bought recombinant protein; also called fasCTLA4-His; FasCTLA4-His

Row | Binder | Kd [1] | koff [1] | kon [1] | Kd [3] | koff [3] | kon [3] | Kd [4] | koff [4] | kon [4] | other results
1 | OX-H7-IgG1 (antibody, V domains shown, Monoclonal anti-OX40 antibody, IgG1 constant regions; also called 040-H7-IgG1) VH: QITLKESGPTLVKPAQTLTLTCTFSGFSLSTSGVGVGWIRQPPGKALEWLALIYWDDDKLYSPSLKSRLTITKDTSKNQVVLAMTNMDPVDTATYYCAHSQLGRDDYWGQGTLVTVSS VL: EIVLTQSPATLCLSPGERATLSCRASQSVSNYLAWYQQKPGQAPRLLIYAASSRATGIPARFSGSGSGTDFTLTISTLEPEDFAVYYCQQRRDWPPTFGQGTKVEIK | 13.8 nM | 0.00824 s⁻¹ | 598000 M⁻¹ s⁻¹ |  |  |  |  |  |  | EC50 (read off the curve) [2]: ~5 µg/mL
2 | OX-H8-CT-3D2-IgG1-SI (bispecific antibody, V domains shown, SI mutations (S239D, I332E, EU)) VH 1: QITLKESGPTLVKPTQTLTLTCTFSGFSLSSRGVGVGWIRQPPGKALEWLALIYWDDDKRYSPSLKSRLTITKDTSKNQVVLTMANMDPVDTATYYCAHSHRGYENFWGQGTLVTVSS VH 2: QVQLVESGPGLVKPSETLSLTCTVSGDSIRSSHYYWGWIRQPPGKGLEWIGSIYFNGITYYSPSLKSRVTISVDTSKNQFSLKLTSVTAADTAVFYCARHNNYYDSSGYWYYFDYWGQGTLVTVSS VL: not shown |  |  |  | 16 nM | 0.00784 s⁻¹ | 490000 M⁻¹ s⁻¹ | 18.9 nM | 0.00966 s⁻¹ | 510000 M⁻¹ s⁻¹ | EC50 (read off the curve) [5]: ~1 µg/mL; EC50 (read off the curve) [6]: ~1 µg/mL
3 | CT-5F9-IgG1 (antibody, V domains shown, Human anti-CTLA4 antibody; IgG1 constant regions) VH: QVQLVESGPGLLKPSETLSLTCTVSGGSISSSSSYWGWIRQPPGKGLEWIGSIYYSGITYYNPSLKSRVTISVDTSKNQFSLKVSSVTAADTAVYYCARLNWNQVFDYWGQGTLVTVSS VL: not shown |  |  |  |  |  |  |  |  |  | Kd [7]: 7.48 nM; koff [7]: 0.00123 s⁻¹; kon [7]: 164000 M⁻¹ s⁻¹
4 | OX-2F5-CT-3D2-IgG1-SI (bispecific antibody, V domains shown, 1+1 knobs-into-holes human IgG1 with common light chain; SI mutations (S239D, I332E, EU)) VH 1: QVQLVESGPTLVKPTQTLTLTCTFSGFSLSTSGVGVGWIRQSPGKALEWLSLIYWDDDKRYNPSLKSRLTVTKDTSKNQVVLAMTNMDPVDTATYFCAHRAHSSSSSDYWGQGTLVTVSS VH 2: QVQLVESGPGLVKPSETLSLTCTVSGDSIRSSHYYWGWIRQPPGKGLEWIGSIYFNGITYYSPSLKSRVTISVDTSKNQFSLKLTSVTAADTAVFYCARHNNYYDSSGYWYYFDYWGQGTLVTVSS VL: not shown |  |  |  | 69.6 nM | 0.00947 s⁻¹ | 136000 M⁻¹ s⁻¹ | 30.4 nM | 0.0257 s⁻¹ | 845000 M⁻¹ s⁻¹ | 
5 | OX-1F9-CT-3D2-IgG1-SI (bispecific antibody, V domains shown, 1+1 knobs-into-holes human IgG1 with common light chain; SI mutations (S239D, I332E, EU)) VH 1: EVQLVESGGGLVQPGGSLRLSCAASGFTFSNYEMNWVRQAPGKGLEWISYIGSSGSTIYYADSVKGRFTISRDNAKNSLYLQMNSLRAEDTAVYYCAVDYIFDYWGQGTLVTVSS VH 2: QVQLVESGPGLVKPSETLSLTCTVSGDSIRSSHYYWGWIRQPPGKGLEWIGSIYFNGITYYSPSLKSRVTISVDTSKNQFSLKLTSVTAADTAVFYCARHNNYYDSSGYWYYFDYWGQGTLVTVSS VL: not shown |  |  |  | 22.8 nM | 0.00698 s⁻¹ | 306000 M⁻¹ s⁻¹ | 2.48 nM | 0.000371 s⁻¹ | 150000 M⁻¹ s⁻¹ | 
6 | OX-1F9-IgG1 (antibody, V domains shown, Human anti-OX40 antibody from RenLite mice) VH: EVQLVESGGGLVQPGGSLRLSCAASGFTFSNYEMNWVRQAPGKGLEWISYIGSSGSTIYYADSVKGRFTISRDNAKNSLYLQMNSLRAEDTAVYYCAVDYIFDYWGQGTLVTVSS VL: not shown | 22.6 nM | 0.00744 s⁻¹ | 330000 M⁻¹ s⁻¹ |  |  |  |  |  |  | 
7 | OX-2C11-IgG1 (antibody, V domains shown, Human anti-OX40 antibody; IgG1 constant regions) VH: EVQLVQSGGGLVKPGGSLRLSCAASGFTFSDSYMSWIRQAPGKGLEWISYISSSISYTKYADSVKGRFTISRDNAKNSLYLEMNSLRAEDTAVYYCARDYYDSGNYYYYFDYWGQGTLVTVSS VL: not shown | 7.59 nM | 0.000412 s⁻¹ | 54400 M⁻¹ s⁻¹ |  |  |  |  |  |  | 
8 | OX-2F2-IgG1 (antibody, V domains shown, Human anti-OX40 antibody; IgG1 constant regions) VH: QVQLVESGGGLVQPGGSLRLSCAASGFTVSNNYMSWVRQAPGKGLEWVSVIYGGGDTYYADSVKGRFTISRDNSQNTLYLQMTSLRADDTAVYYCARGLTIFGVVPFDPWGQGTLVTVSS VL: not shown | 20 nM | 0.0217 s⁻¹ | 1.09e+06 M⁻¹ s⁻¹ |  |  |  |  |  |  | 
9 | OX-2F5-IgG1 (antibody, V domains shown, Human anti-OX40 antibody; IgG1 constant regions) VH: QVQLVESGPTLVKPTQTLTLTCTFSGFSLSTSGVGVGWIRQSPGKALEWLSLIYWDDDKRYNPSLKSRLTVTKDTSKNQVVLAMTNMDPVDTATYFCAHRAHSSSSSDYWGQGTLVTVSS VL: not shown | 45.6 nM | 0.0343 s⁻¹ | 753000 M⁻¹ s⁻¹ |  |  |  |  |  |  | 
10 | CT-4E12-IgG1 (antibody, V domains shown, Human anti-CTLA4 antibody; IgG1 constant regions) VH: QVQLVESGPGLVKPSETLSLTCAVSGGSISSSSYYWGWIRQPPGKGLEWIGNIYYTGITYYNPSLKSRITISVDTSKNQFSLKLSSVTAADTAVYYCARVGGYSYGYLFDYWGQGTLVTVSS VL: not shown |  |  |  |  |  |  |  |  |  | Kd [7]: 17 nM; koff [7]: 0.000422 s⁻¹; kon [7]: 24800 M⁻¹ s⁻¹
11 | OX-2C11-CT-4E12-IgG1-SI (bispecific antibody, V domains shown, 1+1 knobs-into-holes human IgG1 with common light chain; SI mutations (S239D, I332E, EU) in Fc) VH 1: EVQLVQSGGGLVKPGGSLRLSCAASGFTFSDSYMSWIRQAPGKGLEWISYISSSISYTKYADSVKGRFTISRDNAKNSLYLEMNSLRAEDTAVYYCARDYYDSGNYYYYFDYWGQGTLVTVSS VH 2: QVQLVESGPGLVKPSETLSLTCAVSGGSISSSSYYWGWIRQPPGKGLEWIGNIYYTGITYYNPSLKSRITISVDTSKNQFSLKLSSVTAADTAVYYCARVGGYSYGYLFDYWGQGTLVTVSS VL: not shown |  |  |  | 16.7 nM | 0.000626 s⁻¹ | 37500 M⁻¹ s⁻¹ | 37 nM | 0.000685 s⁻¹ | 18500 M⁻¹ s⁻¹ | Kd [8]: 10.2 nM; koff [8]: 0.00023 s⁻¹; kon [8]: 22400 M⁻¹ s⁻¹; Kd [9]: 11.2 nM; koff [9]: 0.000422 s⁻¹; kon [9]: 37800 M⁻¹ s⁻¹
12 | CT-5E3-OX-2F2-IgG1-SI (bispecific antibody, V domains shown, 1+1 knobs-into-holes human IgG1 with common light chain; SI mutations (S239D, I332E, EU)) VH 1: QVQLVESGPGLVKPSETLSLTCTVSGGSISSSSYYWGWIRQPPGKGLEWIGSIYYTGNTYYNPSLKSRVTISVDTSKNQFSLKLSSVTAADTAVYYCARVGFSYGHPFDYWGQGTLVTVSS VH 2: QVQLVESGGGLVQPGGSLRLSCAASGFTVSNNYMSWVRQAPGKGLEWVSVIYGGGDTYYADSVKGRFTISRDNSQNTLYLQMTSLRADDTAVYYCARGLTIFGVVPFDPWGQGTLVTVSS VL: not shown |  |  |  | 50.2 nM | 0.0136 s⁻¹ | 270000 M⁻¹ s⁻¹ | 4.91 nM | 0.000205 s⁻¹ | 41800 M⁻¹ s⁻¹ | Kd [8]: 27.8 nM; koff [8]: 0.000909 s⁻¹; kon [8]: 32700 M⁻¹ s⁻¹; Kd [9]: 8.36 nM; koff [9]: 0.00105 s⁻¹; kon [9]: 126000 M⁻¹ s⁻¹
13 | OX-2F2-CT-3D2-IgG1-SI (bispecific antibody, V domains shown, 1+1 knobs-into-holes human IgG1 with common light chain; SI mutations (S239D, I332E, EU)) VH 1: QVQLVESGGGLVQPGGSLRLSCAASGFTVSNNYMSWVRQAPGKGLEWVSVIYGGGDTYYADSVKGRFTISRDNSQNTLYLQMTSLRADDTAVYYCARGLTIFGVVPFDPWGQGTLVTVSS VH 2: QVQLVESGPGLVKPSETLSLTCTVSGDSIRSSHYYWGWIRQPPGKGLEWIGSIYFNGITYYSPSLKSRVTISVDTSKNQFSLKLTSVTAADTAVFYCARHNNYYDSSGYWYYFDYWGQGTLVTVSS VL: not shown |  |  |  |  |  |  |  |  |  | Kd [8]: 14.2 nM; koff [8]: 0.000774 s⁻¹; kon [8]: 54600 M⁻¹ s⁻¹; Kd [9]: 4.77 nM; koff [9]: 0.000612 s⁻¹; kon [9]: 128000 M⁻¹ s⁻¹
14 | CT-5E3-IgG1 (antibody, V domains shown, Human anti-CTLA4 antibody; IgG1 constant regions) VH: QVQLVESGPGLVKPSETLSLTCTVSGGSISSSSYYWGWIRQPPGKGLEWIGSIYYTGNTYYNPSLKSRVTISVDTSKNQFSLKLSSVTAADTAVYYCARVGFSYGHPFDYWGQGTLVTVSS VL: not shown |  |  |  |  |  |  |  |  |  | Kd [7]: 21.8 nM; koff [7]: 0.000674 s⁻¹; kon [7]: 30900 M⁻¹ s⁻¹
